# B1: V19S76K-5C8: tag-less bispecific anti-CD40-anti-Vγ9Vδ2-TCR VHH, SEQ ID NO:23 (protein)
# VHH: QVQLQESGGGLVQAGGSLRLSCAASGRTFGRSAMGWFRQAPGKEREFVAAIGTRGGSTKYADSVKGRFTISTDNAKNTVYLQMDSLKPEDTAVYRCAVRGPGYPSAAIFQDEYHYWGQGTQVTVSSGGGGSEVQLVESGGGLVQAGGSLRLSCAASGRPFSNYAMGWFRQAPGKEREFVAAISWSGGSTSYADSVKGRFTISRDNAKNTVYLQMNSPKPEDTAIYYCAAQFSGADYGFGRLGIRGYEYDYWGQGTQVTVSS
# modifications: antibody sequence
# What was measured:
# [1] = tested on: Vγ9Vδ2-T cells present in the bone marrow of MM patients; assay: Activation of Vγ9Vδ2-T cells in bone marrow mononuclear cells from MM patients; assay type: cell-based, human; settings: 10 nM, overnight
# Protocol: FIG. 17: V19S76K-5C8 is active against primary multiple myeloma. (A) Example of CD40 expression on primary MM cells, as detected using anti-CD40 PE antibody, clone MAB89, Beckman Couter, IM1936U. Representative histograms of 4 donors (B) Bone marrow of MM patients was cultured overnight in the presence or absence of healthy donor-derived Vγ9Vδ2-T cells in a 1:1 (Vγ9Vδ2-T:plasma cell) ratio in the absence or presence of V19S76K-5C8 (10 μM or 10 nM). Live plasma cells were quantified by flow cytometry using counting beads (n=5). (C, D) Mononuclear cells from the bone marrow of MM patients were cultured overnight with V19S76K-5C8 (VHH; 10 nM), aminobisphosphonate (ABP; 10 μM zoledronic acid (positive control)) or medium control in the presence of brefeldin, monensin and anti-CD107a to measure (C) cytokine production and (D) degranulation by flow cytometry (n=6). Data are presented as mean and SEM. *P<0.05, **P<0.01. (B-D: repeated-measures one-way ANOVA followed by Dunnett's post hoc test compared to condition without antibody).
# Similarly, Vγ9Vδ2-T cells present in bone marrow mononuclear cells from MM patients degranulated after culture with the bispecific VHH V19S76K-5C8 (FIG. 17D).
# [2] = tested on: CD40-stimulated CLL cells; assay: Cytotoxicity against CLL cells cultured on 3T3 or CD40L+ 3T40L fibroblasts; assay type: cell-based, human; settings: with Vγ9Vδ2-T cells 1:1, V19S76K-5C8 100 nM; 3T3 versus 3T40L; FIG. 14
# Protocol: Primary CLL cells were obtained, cryopreserved and thawed as described in Example 3. 3T3 fibroblasts, either WT or transfected with human CD40L (3T40L), were grown in complete IMDM. Vγ9Vδ2-T cells were grown as described in Example 7.
# Primary CLL cells were cultured for 72 hours on irradiated 3T3 or 3T40L fibroblasts to induce CD40 stimulation.
# Cells were then harvested and cultured overnight either with venetoclax (10 nM) as described in Example 10, or with Vγ9Vδ2-T cells and V19S76K-5C8 as described in Example 12. Viability measurement and flow cytometry were performed as described in Example 10.
# [3] = biological target: T1, human CD40 (CD40-transfected HEK293T cells) (Homo sapiens, UniProt P25942); assay: Bispecific VHH binding to CD40-transfected HEK293T cells, anti-llama IgG flow cytometry; settings: 1 μM; FIG. 5
# T1 construct: expressed in transfected cells; host or cells: HEK293T
# T1 sequence (P25942 21-277): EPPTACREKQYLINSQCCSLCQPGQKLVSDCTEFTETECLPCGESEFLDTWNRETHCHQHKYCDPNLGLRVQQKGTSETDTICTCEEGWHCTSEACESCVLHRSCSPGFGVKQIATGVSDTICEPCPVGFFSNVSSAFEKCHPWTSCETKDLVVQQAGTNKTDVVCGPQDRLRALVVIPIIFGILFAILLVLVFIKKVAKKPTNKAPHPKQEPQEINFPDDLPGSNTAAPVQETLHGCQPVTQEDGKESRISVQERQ
# Protocol: The embryonic kidney cell line HEK293T, either wildtype (WT) or transfected with human CD40, was grown in complete DMEM.
# To assess VHH binding, cells were incubated with V19S76K-5C8 (1 μM) or medium control for 30 minutes at 37° C. Bound VHH was detected by incubation with FITC-conjugated goat-anti-llama IgG-heavy and light chain antibodies (A160-100F, Bethyl Laboratories Inc., Montgomery, Tex., USA) for 20 minutes at 4° C.
# After 48 hours, cells were analyzed by flow cytometry as described in Example 2.
# [4] = tested on: Vγ9Vδ2-T cells from CLL patients; assay: Cytokine and degranulation assay: autologous Vγ9Vδ2-T cells from CLL patients; assay type: cell-based, human; settings: 10 nM, overnight with autologous CLL cells
# Protocol: (§1) PBMCs from CLL patients were obtained, cryopreserved and thawed as described in Example 3.
# CLL PBMCs were partially depleted of CD19^+ CLL cells using magnetic beads (130-050-301, Miltenyi Biotec. ±50% of the PBMCs were CD19^+ after CD19 depletion). PBMCs were then cultured overnight with V19S76K-5C8 (10 nM) or medium control in the presence of Brefeldin A, GolgiStop and anti-CD107a to measure cytokine production and degranulation as described in Example 11. In contrast to Example 11, surface staining included PE-conjugated anti-Vγ9-TCR (2256535, Sony) and FITC-conjugated goat-anti-Ilama IgG-heavy and light chain antibodies (A160-100F, Bethyl Laboratories Inc.)
# Vγ9Vδ2-T cells = assay: Cytokine and degranulation assay: Vγ9Vδ2-T cell lines with CD40+ CII cells; assay type: cell-based, human; settings: for degranulation of Vγ9Vδ2-T cells (CD107a): FIG. 10A
# Protocol: (§2) CD40^+ CII cells and Vγ9Vδ2-T cells were grown as described in Example 7.
# Vγ9Vδ2-T cell lines were incubated with V19S76K-5C8 or medium control for 30 minutes at 37° C. Subsequently, Vγ9Vδ2-T cells were cocultured with CII cells for 4 hours in a 1:1 ratio in the presence of Brefeldin A (10 μg/mL; B7651, Merck), GolgiStop (554724) and PECy7-conjugated anti-CD107a (561348, both BD Biosciences). Cells were then washed and surface staining was performed with Fixable Viability Dye eFluor506 (65-0866-14), AF700-conjugated anti-CD3 (56-0038-82, both Thermo Fisher Scientific) and FITC-conjugated anti-Vγ9-TCR (IM1463, Beckman Coulter) antibodies. Cytofix/Cytoperm reagent (554722) was used for detection of intracellular cytokines with BUV395-conjugated anti-IFN-γ (563563), […] anti-TNF-α (563418, all BD Biosciences) and PE/Dazzle594-conjugated anti-IL-2 (500343, Biolegend).
# Samples were measured on an LSRFortessa cytometer (BD Biosciences) and analyzed with Flowjo MacV10.
# CD19+ CLL cells = assay: Cytotoxicity of CLL cells by autologous CD3+ cells, live cell count with counting beads; assay type: cell-based, human; settings: 10 nM, overnight, CD3+:CD19+ 10:1, autologous; FIG. 16
# Protocol: as §1
# CD3^+ cells were isolated from CLL PBMCs using magnetic beads (purity ≥93%; 130-050-101, Miltenyi Biotec) to simultaneously enrich for Vγ9Vδ2-T cells. CD19^+ CLL cells were isolated from the same sample using magnetic beads (purity ≥93%; 130-050-301, Miltenyi Biotec). CD3^+ cells were cultured overnight with CD19^+ CLL cells in a 10:1 ratio with V19S76K-5C8 (10 nM) or medium control.
# Samples were incubated with Fixable Viability Dye eF780 (65-0865-14), PerCPeF710-conjugated anti-CD3), PE-conjugated anti-CD5 (12-0059-42, all Thermo Fisher Scientific) and FITC-conjugated anti-CD20 (A07772, Beckman Coulter) antibodies. Live CLL cells were then quantified using counting beads (01-1234-42, Thermo Fisher Scientific) on a FACSCanto cytometer (BD Biosciences).
# CD40+ CII target cells = assay: Cytotoxicity assay: CII target cells with Vγ9Vδ2-T cells; assay type: cell-based, human; settings: 1:1 ratio
# Protocol: as §2
# CII target cells were labeled with carboxyfluorescein succinimidyl ester (CFSE; C1157, Thermo Fisher Scientific) and incubated with VHH or medium control for 30 minutes at 37° C. Target cells were then cocultured overnight with Vγ9Vδ2-T cell lines in a 1:1 ratio.
# Viability was measured as described in Example 4.
molecule,measurement,setting,value
B1,production of IFN-γ and TNF-α by bone marrow Vγ9Vδ2-T cells,[1]; FIG. 17C,triggered to produce the pro-inflammatory cytokines IFN-γ and TNF-α
same,degranulation of bone marrow Vγ9Vδ2-T cells,[1]; FIG. 17D,degranulated
same,cytotoxicity in unstimulated versus CD40-stimulated CLL cells,[2],induced cytotoxicity in unstimulated and CD40-stimulated CLL cells to a similar extent
same,binding to CD40-expressing HEK293T cells,[3],binds to the CD40-expressing HEK293T cells
same,"production of IFN-γ, TNF-α and IL-2 by Vγ9Vδ2-T cells from CLL patients",[4]; FIG. 15A-C,produced the cytokines IFN-γ
same,Vγ9Vδ2-T cell degranulation (CD107a expression),[4]; FIG. 15D,induced Vγ9Vδ2-T cell degranulation
same,degranulation of Vγ9Vδ2-T cells (CD107a),Vγ9Vδ2-T cells; CD40+ CII cells not present,did not induce this level of degranulation
same,degranulation of Vγ9Vδ2-T cells (CD107a),"Vγ9Vδ2-T cells; with CD40+ CII cells, 1:1 ratio, 4 hours",the large majority of Vγ9Vδ2-T cells degranulated
same,"IFN-γ, TNF-α and IL-2 production by Vγ9Vδ2-T cells","Vγ9Vδ2-T cells; with or without CD40+ CII cells, FIG. 10B-D",A similar pattern was observed
same,live CLL cells versus medium control,CD19+ CLL cells,Fewer CLL cells were alive
same,EC50,"CD40+ CII target cells; lysis of CII target cells with Vγ9Vδ2-T cells, FIG. 11B, read-out: half maximal effective concentration",9.1 µM
same,lysis of CII target cells,"CD40+ CII target cells; overnight with Vγ9Vδ2-T cells, FIG. 11A",increased markedly

# From patent publication US20220135694A1, “NOVEL CD40-BINDING ANTIBODIES” (LAVA THERAPEUTICS B.V., priority 2019, published 2022)
